Data reported in the supplement of paper PMC12042874.
± gives the uncertainty stated by the source.

Assay: amyloid nucleation score (Sup35N fusion, yeast selection) (log enrichment); library NNK2; higher = more nucleation; inactive = no reads after selection
Outline: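 Libraries of peptides of 20 random codons fused to Sup35N were expressed in psi-negative yeast and induced 24 hours with 100 μM copper sulfate. Selection was 7 days at 30°C on medium lacking adenine and uracil, and plasmid inserts were Illumina-sequenced before and after selection. Nucleation score is the DiMSum log enrichment of output over input reads, centred on the mode score of non-aggregating sequences, and sequences with under 100 input reads were left out.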

Point of comparison: PFGHFQLLINSKTGMRSVMT, amyloid nucleation score -0.463 ± 0.37. Against it:
- DFLVYCGLLEQLWLLSDAKC — within error, -0.356 ± 1.1
- YCSYQVVRGRPSVAGRDNLQ — within error, -0.424 ± 0.63
- RSHMSRLIVDFNTG — higher, 0.474 ± 0.3
- PIRWVGHNKGFQGL — within error, -1.22 ± 0.75
- PSDMHSNNLA — within error, -0.774 ± 0.76
- YVKLCSRRDGT — within error, -0.352 ± 0.18
- MEWKSGL — within error, 0.534 ± 0.64
- TRTNEVSGNAESKNCRCYIG — higher, 0.404 ± 0.29
- SRKLRLVRGFWG — within error, -0.067 ± 0.62
- LWFITCNMSGHWLLTERR — higher, 4.39 ± 0.064
- TGYFTARNSAEVKRHVNLKR — within error, 0.169 ± 0.8
- LLDLALRLTMGLITKHEANK — higher, 3.61 ± 0.064
- ECCQILCGSYWYIKYLSYDC — higher, 1.8 ± 0.13
- STFLCVLTGMCCMARMS — within error, 0.54 ± 0.64
- PLCFLVMGHGTRCVCRWNTG — within error, -0.464 ± 0.63
- MINFHKHGLTI — within error, -0.482 ± 0.35
- CKLISFIRYPPPAYVVSRER — higher, 2.33 ± 0.13
- VFSDWVSSKPLRSVVPCFCN — within error, -0.496 ± 1.1
- LIIQRLEGAF — within error, -0.245 ± 0.32
- SRTIGTMQLVTMNWCFRKEA — higher, 5.37 ± 0.045
- LPLLSWDPRNTSP — within error, -0.218 ± 0.53
- SARSIERSDYPMINARHHAC — within error, 0.031 ± 0.34
- ACDSAIIGWNKIT — higher, 0.504 ± 0.54
- TLDGMQMSWFRNGV — higher, 3.93 ± 0.13
- TTVDSNIRAYIFKVARYHYK — within error, -0.488 ± 1
- LRVVSES — within error, -0.599 ± 0.35
- WCCMGDMISVKSLVWEPCVT — higher, 3.17 ± 0.098
- KRYTHRCKPFTLHHLPVDAR — higher, 1.25 ± 0.33
- IEYRNMLMLSCFNKYMDCLN — higher, 4.45 ± 0.055
- FFKRSSFKMGSRITETRYRR — within error, -0.728 ± 0.56
- TNSGMWGKLSACFYFVMQYL — within error, -0.936 ± 0.27
- HWTSFKSGNALGMCETI — within error, 0.076 ± 0.41
- PMISKVCHILKRVEPSWGMR — within error, -0.199 ± 1.1
- SGSRYAIVSYG — within error, -0.139 ± 0.53
- DFIMFLAGPNSVNYNVVLYF — higher, 7.437 ± 0.055
- VLFDF — higher, 0.652 ± 0.56
- VDHSMVCWVRCMGC — within error, 0.19 ± 1.1
- YAWKNPYSCWICR — within error, -0.174 ± 0.44
- SSKSCVPQVLINILDDSTVN — within error, -0.632 ± 0.79
- NFSSWSER — within error, -0.885 ± 0.54
- RPSSWVVRCE — within error, 0.223 ± 0.41
- CIELFPFAMVNRIFATYSYH — within error, -0.352 ± 0.25
- CPCYCLTSFACLGNSVPTWR — higher, 10.15 ± 0.043
- IYGSYVLDLVGVNLAGKGEN — within error, -0.347 ± 1
- KATSCFLDWCGCPWHLMALD — higher, 0.496 ± 0.29
- AEGVSL — within error, -0.554 ± 1
- MSNDRDVVKVWFFPYDPHQS — within error, -0.378 ± 0.26
- RNFGAVAFWVGWHWVVFSVG — within error, -0.588 ± 0.29
- VTEIFMLAL — within error, -0.129 ± 1.1
- PANGS — within error, -0.249 ± 1
- CDLFGSCVDIWDTYINLSDR — within error, -0.573 ± 1.1
- DDCKQRTHNDYMD — within error, 0.175 ± 0.37
- VVRYRLCSWMDIMCNVAACQ — higher, 4.267 ± 0.042
- YFCCVSTIARSMFLSRGSGR — higher, 8.771 ± 0.058
- VVRRYICRVLRMFWYWVVRE — within error, -0.145 ± 0.76
- IQTNVYWGISCCVSLSLSGL — higher, 9.549 ± 0.022
- HCIMYSTLRHRVWSGRLDGS — higher, 3.86 ± 0.089
- RLKLMQFLHLAPIVPAILCC — higher, 0.444 ± 0.35
- VELQP — higher, 1.18 ± 0.29
- LYRAGVAFVCTYFVNSGEF — higher, 2.61 ± 0.13
- STWLS — within error, -0.626 ± 1.1
- YLGICTMFDTGIGEIFTCCT — higher, 5.78 ± 0.069
- VFGWSVRFNYYIFMSMANDV — higher, 3.62 ± 0.13
- KISSMAVI — within error, 0.069 ± 0.48
- MDNTWNLCDSFYSCSGDLNT — within error, -0.595 ± 0.35
- MHASDDMLKCWYKCAEVRPA — higher, 1.29 ± 0.31
- NSTCDMLVSQVVAAVNGF — within error, -0.715 ± 0.49
- PHLASPYHHPCNPQFLFPYL — within error, 0.016 ± 1.1
- LSNAFRLNYTLLYAFISYFH — within error, -1.22 ± 0.76
- KCILDRVRGTGLGIMKLKRG — within error, 0.306 ± 0.65
- PGSLSLIINIKCTTAKDRTL — higher, 2.79 ± 0.13
- VIYFHHVTYSIYPLL — higher, 0.561 ± 0.62
- MNHTDGQHCFVSWRCLDGWR — higher, 0.705 ± 0.66
- LGGLSDVFQNRPLMTYGAWS — within error, -0.303 ± 0.35
- RFCWAMYNGFPHK — higher, 4.33 ± 0.059
- PLWPSNSD — within error, -0.331 ± 0.54
- SSYTLGFFRCNRFWCLCIDC — within error, -1.2 ± 0.56
- HLTESHFGWFGSDVSSQTFL — higher, 3.42 ± 0.084
- PAKERLFRVETGRFRMKGSW — higher, 1.63 ± 0.13
- FIRIVSFMRWHATTSALAIA — within error, 0.106 ± 0.36
- YNQSMYFRVLGFYTYPSDRG — higher, 2.32 ± 0.07
- ALTVKSQLCG — within error, -1.71 ± 1.1
- DIWKTQ — within error, 0.218 ± 0.8
- EKVNLSTSCRVA — higher, 0.664 ± 0.34
- RATKGAPN — higher, 0.858 ± 0.28
- VRGSATEFTILVVVVVLGKR — within error, 0.182 ± 0.42
- IGIAKYLREGRSSPTESL — within error, -0.5 ± 0.33
- IGTNSGAINSVSHGLLAGYG — higher, 1.24 ± 0.47
- SFWNQKYCA — within error, -0.117 ± 0.4
- FYESKMGVMINFNWFYDTTS — higher, 6.88 ± 0.069
- IPNYLSYTWILYNYTFLGAC — higher, 0.719 ± 0.38
- FSYMYPRGLLVINMSGVQVN — higher, 1.22 ± 0.17
- LLEVGSKKCGHPLSTYSKAN — higher, 0.463 ± 0.48
- GKNELYQVS — higher, 0.774 ± 0.41
- SSMSNIEE — within error, -1.15 ± 0.42
- RLRVVEPGNACWGQMLG — within error, 0.165 ± 1
- HQRYSRLLIKKCYTSASVPC — within error, -0.245 ± 0.62
- LWSSKYYKPPYWDNVVCSII — within error, -0.699 ± 1
- QVFFFLITSRVRSVRFSQEF — higher, 1.62 ± 0.25
- PERCYQTG — within error, -0.251 ± 0.76
- MANVADMIVDGLM — higher, 0.525 ± 0.49
- VFSSNEYFPLYSVFIVSEIL — higher, 2.47 ± 0.074
- MNLSGVQVAMFSSQPVALTG — within error, 0.097 ± 0.63
- QCFSLGGWVCFVIDVC — higher, 9.476 ± 0.079
- HLTEFNNRRRLGTDLAGVGN — within error, 0.109 ± 0.33
- RSLCDL — within error, -0.755 ± 0.54
- AFEPDIK — within error, -0.738 ± 0.62
- ASQFCNKSSSYRDSRYLYTL — within error, -0.802 ± 0.38
- WSNSYHRLILWRQCIFGLLV — higher, 2.76 ± 0.081
- FCWRYNSKIRLKHGQDSGPR — within error, -0.343 ± 0.33
- MDSILVNVYVVNW — higher, 9.259 ± 0.042
- SKGSTGLRIVLFHFTCVVID — higher, 1.99 ± 0.17
- GGWLYANGEYWWSTG — higher, 1.53 ± 0.58
- WSSTVKSVKSAGAP — higher, 0.475 ± 0.38
- IIVFV — within error, 0.086 ± 0.74
- MCSQGCTHFRVAWPLRACRW — higher, 3.85 ± 0.072
- IAGLTISSAISGSWDVVKPS — higher, 4.38 ± 0.052
- GQLGNCLVSAAFLFAFIVLS — higher, 4.33 ± 0.075
- LLLVPIPH — higher, 1.07 ± 0.38
- VCACLNMTCVFFILTGNGVK — higher, 7.59 ± 0.039
- MRKMRTMNAQWSWIIVCSFW — within error, 0.151 ± 0.63
- YLKFIKANVRTSGKKLA — within error, -0.562 ± 1.1
- NVERSFGAVGQVRIEEYARD — within error, 0.266 ± 1
- EHRSVRDLKRMQCEIYSRGV — within error, 0.191 ± 0.8
- VYNSFSAFFYG — higher, 7.051 ± 0.036
- SGLVWVTN — within error, -0.018 ± 1.1
- FNATIVDRDLRSRGQNRSLQ — within error, 0.362 ± 0.65
- RITWFVIFIHCCKGLIR — within error, -0.369 ± 0.54
- SNPTSVQVRFLLHILLKSVL — higher, 0.629 ± 0.52
- NVSSSLPF — within error, -0.424 ± 0.78
- KYCCWLRCGLIYNWGGNQDV — higher, 5.14 ± 0.064
- FVEIIAKWILTI — within error, 0.033 ± 0.6
- RTGHTINFVEQPMHTVPMWH — higher, 5.08 ± 0.068
- YLEWIL — lower, -2.06 ± 0.54
- TQPPNCQVYKRDDTCYWCGS — within error, -0.509 ± 0.33
- FKNTIV — within error, -0.343 ± 0.56
- VLLHCRSICGTRLALPLTGR — higher, 1.57 ± 0.4
- PKNMWGSNNLRGMPVSDVKS — within error, 0.032 ± 0.34
- LVSKSERER — higher, 5.451 ± 0.053
- SILALTE — within error, -0.072 ± 1.1
- CGLYWFMVFTF — within error, 0.147 ± 0.76
- WSITGG — within error, 0.477 ± 0.66
- NDRRRRGCRWMVAALVSSVL — higher, 0.966 ± 0.53
- IFCWL — higher, 3.51 ± 0.047
- VCCVP — within error, -1.09 ± 1.1
- TFDLQFELFMGDRTLSLL — within error, -0.038 ± 0.29
- GLDITIGEA — within error, -0.522 ± 0.63
- SCTALVKEKMRG — higher, 0.48 ± 0.32
- WHIFRNYAFIRVSM — within error, 0.036 ± 0.46
- HMFPRWPFDVVKKDPTTTHL — within error, 0.31 ± 0.41
- PRAHTVNV — within error, -0.249 ± 1.1
- MEFSAKFIYFS — higher, 1.48 ± 0.11
- YRDECWLSYS — within error, -0.347 ± 0.56
- YVYVDYWICTIWCVLCNLCS — within error, 0.256 ± 1
- SSLSGYGSYGLLPRWLRLVT — higher, 1.81 ± 0.4
- TYFYSWYGKYPADSRFY — within error, -0.488 ± 1
- KRHNR — higher, 0.846 ± 0.48

For PVGVDLWCGSQSNSLNAFLH, the amyloid nucleation score was “inactive”.
With IDRGTFVLGFYRYKYNYFFK the amyloid nucleation score was “inactive”.
For PVRLPSMWNVDRAFWPDYCQ, the amyloid nucleation score was “inactive”.
For KDCLTVVMLSLVHLRPCY, the amyloid nucleation score was “inactive”.
With WLCYRGEFRYFDPVGNDLRN the amyloid nucleation score was “inactive”.
For SQILTMWYLVIYYMSNRFGG, the amyloid nucleation score was “inactive”.
For IFVNILNWLSVVRSSGFGSV, the amyloid nucleation score was “inactive”.
For FYQVNLPSCLNSDDNRCS, the amyloid nucleation score was “inactive”.
For ILIKIKRWSFRFPFGFGKLD, the amyloid nucleation score was “inactive”.
In the case of FYMLYYQIAVSCHLCFDILV, the amyloid nucleation score is reported as “inactive”.
With YSCMVFSLGRVMELSGHMFG the amyloid nucleation score was “inactive”.
For VVMNFMTDVNSLVWPTS, the amyloid nucleation score was “inactive”.
In the case of RPASKTMEDGCGLI, the amyloid nucleation score is reported as “inactive”.
In the case of VGFVCDLTGMNMGRFFKCGN, the amyloid nucleation score is reported as “inactive”.
With LYLKFYLCTGKDNDWNT the amyloid nucleation score was “inactive”.
In the case of NNSHPRNKLSWIVRLCVKLI, the amyloid nucleation score is reported as “inactive”.
